Values quoted from earlier work, collected in publication PMC5689411.

Molecular target: RNR beta2 (Escherichia coli) (UniProt P69924)
Assay: competitive inhibition assay

Sequence of UniProt P69924 (P69924 2-376): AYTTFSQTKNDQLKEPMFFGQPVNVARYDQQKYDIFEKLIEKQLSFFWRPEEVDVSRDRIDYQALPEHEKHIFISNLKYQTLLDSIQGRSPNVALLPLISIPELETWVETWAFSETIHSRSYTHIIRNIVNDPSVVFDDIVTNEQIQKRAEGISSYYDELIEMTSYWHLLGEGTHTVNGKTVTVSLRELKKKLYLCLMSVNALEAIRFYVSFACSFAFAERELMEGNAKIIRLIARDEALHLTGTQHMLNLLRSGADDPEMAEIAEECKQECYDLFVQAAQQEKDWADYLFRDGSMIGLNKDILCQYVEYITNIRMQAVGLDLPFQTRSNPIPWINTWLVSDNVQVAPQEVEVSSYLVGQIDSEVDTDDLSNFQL

For RNR alpha2 (from UniProt P00452), the Kd is given as 180 nM.
